This note sets out measurements from the nanobody polyreactivity screen of Harvey et al. (2022).

The series can be described thus: yeast display, Sf9 membrane polyspecificity reagent, FACS + sequencing; frameworks hold sequencing errors. In a few lines:
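A nanobody's polyreactivity label depends on the gate it was sorted from. Yeast display cells were stained with 10% biotinylated, detergent-solubilized Sf9 membrane reagent for 1 hour at 4 °C, enriched on streptavidin microbeads and sorted by FACS. The low and high (top ~1%) gates were set on anti-HA fluorescence for expression and streptavidin fluorescence for reagent binding.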
On to “QVQLVESGGGLVQAGGSLRLICAASGGIFYSNARGWYRQAPGKERDFVAAITRSGTSTYYADSVKGRITISRDNAKNTVYLQMNSLKPVDTAVYYCAADYRYRRYRGHVSKLYYWGQGTQVTVSS”, for which the “polyreactivity (PSR sort gate)” value is “low polyreactivity”.

As for “QVKLVESGGGLVQAGGSLRLSCAASGSIVVRYTMGWYRQAPGKERELVAAIYWGGGSTYYADSVKGRFTISRDNAKNTVYLQMNSLKAEDTAVYYCKKRYILLYDYWGQGTQVTVSS”, the “polyreactivity (PSR sort gate)” value is reported as “low polyreactivity”.

Regarding “QVQLVESGGGLVQAGGSLRLSCAASGFIFYSYAMGWYRQAPGKEREFVASICGGTGSTYYADSVKGRFTISRDNAKNTVYLQMNSLIPEDTAVYYCNARIVHSFRYDYWGQGTQVTVSS”, the “polyreactivity (PSR sort gate)” value is given as “low polyreactivity”.

As to “QVQLVESGGGLVQAGGSLRLSCAASGSIFRPNTMGWYRQAPGKERELVAAIRAGGRTYYADSVKGRFTISRDNAKNTVYLQMNSLKPEDTAVYYCNAVPASASTWRGQVGYDYWGQGTQVTVSS”, the “polyreactivity (PSR sort gate)” value is on record as “high polyreactivity”.

For “QVQLVESGGGLVQAGGSLRLSCAASGRTFHSNAMGWYRQAPGKERELFAAISYSGGSTYYADSVKGRFTISRDNAKNTVYLQMNSLKPEDTAVYYCNAGAVHKKPARDYWGQGTKVTVSS”, the “polyreactivity (PSR sort gate)” value is reported as “low polyreactivity”.

As for “QVQLVESGGGLVQAGGSLRLSCAASGSTLAVYAMGWYRQAPGKEREFFAAISWSGVSTYYADSVKGRFTISRDNAKNTVYLQMNSLKPEDTAVYYCAAKRVRALYGGSEGGYWGQGTQVTVSS”, the “polyreactivity (PSR sort gate)” value was “low polyreactivity”.

For the sequence “QVQLVESGGGLVQAGGSLRLSCASSGFIIYSYAMGWYRQAPGKERELVAVISSRGGTTYYADSVKGRFTISRDNAKNTVYLQMNSLKPEDTAVYYCAADVWGPYDYWGQGTQVTVSS”, the “polyreactivity (PSR sort gate)” value is reported as “low polyreactivity”.

As for “QVQLVESGGGLVQAGGSLRLSCAASGSTLYYYAMGWSRQAPGKERELVAAISWSGGITYYADSVKGRFTISRDNAKNTVYLQMNSLKPEDTAVYYCAADKYQGYTFYQGYPGGGGYWGQGTQVTVSS”, the “polyreactivity (PSR sort gate)” value is “low polyreactivity”.

Consider “QVQLVESGGGLVQAGGSLRLSCAASGYIFYEYAMGWYRQAPGKERELVAAISRRGGRTYYADSVKGRFTISRDNAKNTVYLQMKSLKPEDTAVYYCATRVIYGHSVGYWGQCTQVTVSS”, for which the “polyreactivity (PSR sort gate)” value is on record as “high polyreactivity”.

As for “QVQLVESGGGLVQAGGSLRLSCAASGRIFRRYTIGWYRQAPGKEWELVAGISSGGSTKYADSVKGRFTISRDNAKNTVYLQMNSLKPEDTAVYYCNRRCPIYGSRFGYYYWGQGTQVTVSS”, the “polyreactivity (PSR sort gate)” value is “high polyreactivity”.

On to “QDQLVESGGGLVQAGGSLRLSCDASGRIFWVYVMGWYRQAPGKERELVADITSIGGSTYYADSVKGRFTISRDNAKNTVYLQMNSLKPEDTAVYSCAADVDGYPYYQYKMGYWGQGTQVTVSS”, for which the “polyreactivity (PSR sort gate)” value is “low polyreactivity”.

For the sequence “QVQLVESGGGLVQAGGSLRLSCAASGSTLVTNAMGWYRQAPGKERELVAAITFSGGTTYYADSVKGRFTISRDNAKNTFYLQMNSLKPEDTAVYYCAAEIWLEYVGYDYWGQGTQVTVSS”, the “polyreactivity (PSR sort gate)” value is “high polyreactivity”.

For the sequence “QVQLVESGGGLVQAGGSLRLSCAASGFIFSTNAMGWYRQAPGKERELVAVINGGGSTYYADSVKGRFTISRDNAKNTVYLQLNSLKPEDTAVYNCARKSWPKEGRVDPGYDYWGQGTQVTVSS”, the “polyreactivity (PSR sort gate)” value is reported as “low polyreactivity”.

Consider “QVQLVESGGGLVQAGGSLRLSCAASGSTFSQNALGWYRQAPGKDRELVAAITSGGITYYADSVKGRFTMSRDNAKNTVYLQMNSLKPEDTAVYYCAADFWPSGRGVAFDYWGQGTQVTVSS”, for which the “polyreactivity (PSR sort gate)” value is reported as “low polyreactivity”.

On to “QVQLVESGGGLVQAGGSLRLRCAASGLTFGVYPMGWYRQAPGKERELVAAISSSGGSTYYADSVKGRYTISRDYAKNTVYLHMNSLKPEDTAVYYCNAGRGTKYDYWGQGTQVTVSS”, for which the “polyreactivity (PSR sort gate)” value was “low polyreactivity”.

With “QVQLVESGGGLVQAGGSLRLSCAASGRTFYTNAMGWYRQAPGKERELVAAISRGGGRTYYADSVKGRFTISRDNAKNTVYLQMNSLKPEDTAVYYCAASPYQGQGREYYYWGQGTQVTVSS”, the “polyreactivity (PSR sort gate)” value was “high polyreactivity”.
